These are literature values, as cited in patent publication US20220184026A1, “COMPOSITIONS OF FULVIC ACID AND CANNABINOID AND USES THEREOF” (Omni Bioceutical Innovations, Inc., priority 2019, published 2022).

Read-outs that look alike come from different tables or passages of the source.

This data set deals with chronic wounds. Further details: key: N.S. = not statistically significant.

B1: platelet-derived growth factor BB (protein, UniProt P01127 82-190, looked up)
Platelet-derived growth …: SLGSLTIAEPAMIAECKTRTEVFEISRRLIDRTNANFLVWPPCVEVQRCSGCCNNRNVQCRPTQVQLRPVQVRKIEIVRKKPIFKKATVTLEDHLACKCETVAAARPVT
For the molecule B1, the Results result by setting is: (Mustoe et al., pressure wounds (n=45), 1 and 3 μg/mL daily) “N.S”; (Robson et al., pressure wounds (n=20), 1, 10, and 100 μg/mL daily) “N.S”.

B2: transforming growth factor-β2 (protein, UniProt P61812 303-414, looked up)
Transforming growth factor …: ALDAAYCFRNVQDNCCLRPLYIDFKRDLGWKWIHEPKGYNANFCAGACPYLWSSDTQHSRVLSLYNTINPEASASPCCVSQDLEPLTILYYIGKTPKIEQLSNMIVKSCKCS
Turning to B2, the Results entry (Robson et al., venous wounds (n=36), 2.5 μg/cm^2 three times per week) is given as “N.S”.
